What was measured:
[1] = molecular target: YqiC of Salmonella enterica serovar Typhimurium (Salmonella enterica serovar Typhimurium ATCC 14028); assay: cross-linking; purified YqiC with ethylene glycol bis(succinimidylsuccinate) (EGS) at 0.5, 1.0 and 5.0 mM, 30 min at room temperature in phosphate-buffered saline, stopped with 50 mM Tris-HCl pH 8.0; products on 15% SDS-PAGE, Coomassie staining
[2] = molecular target: YqiC of Salmonella enterica serovar Typhimurium (Salmonella enterica serovar Typhimurium ATCC 14028); assay: SEC-MALS; static light scattering (90°) and refractive index coupled to a Superdex 75 column; eluted with PBS (methods) or 50 mM Tris-HCl, 150 mM NaCl pH 8; calibrated with BSA; single homogeneous peak

YqiC of Salmonella enterica serovar Typhimurium (from UniProt A0A2X4T3G4 1-98) (natural protein)
stoichiometry N [1]: 3
stoichiometry N [2]: 3

From PMC3107778
